Data as given in publication PMC11603127 (Computational and Structural Biotechnology Journal, 2024).

Assays:
[1] = biological target: T1, Recombinant NAA10 (wild type) (human, UniProt P41227 1-235, labeled with Monolith NT Protein Labeling Kit RED); experiment: MST
T1 sequence: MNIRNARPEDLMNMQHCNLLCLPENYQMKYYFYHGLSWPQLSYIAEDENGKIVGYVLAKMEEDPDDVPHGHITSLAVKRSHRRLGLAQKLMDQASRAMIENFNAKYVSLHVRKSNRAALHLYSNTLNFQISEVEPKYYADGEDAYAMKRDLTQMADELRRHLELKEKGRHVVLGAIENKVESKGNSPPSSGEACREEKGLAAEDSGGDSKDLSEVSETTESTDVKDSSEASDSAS

Recombinant NAA10^F128L = biological target: T2, Recombinant NAA10^F128L (human, UniProt P41227 1-235, F128L, labeled with Monolith NT Protein Labeling Kit RED); experiment: MST
T2 sequence: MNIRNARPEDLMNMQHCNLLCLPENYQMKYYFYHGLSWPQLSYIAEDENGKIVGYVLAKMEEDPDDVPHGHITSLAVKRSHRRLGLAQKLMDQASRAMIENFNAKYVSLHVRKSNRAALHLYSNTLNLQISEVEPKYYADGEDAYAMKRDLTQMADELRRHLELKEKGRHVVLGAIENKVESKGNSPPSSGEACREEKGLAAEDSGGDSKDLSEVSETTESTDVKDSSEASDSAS

binding result [1]: binds | binding result (Recombinant NAA10^F128L): binds
Binder: EEEIAALRWGRPVGRRRRPVRVYP [EEEI24 oligopeptide]
